Measured values: paper PMC7527728, “CPSF6-Dependent Targeting of Speckle-Associated Domains Distinguishes Primate from Nonprimate Lentiviral Integration” (mBio, 2020)
Read-outs that look alike come from different tables or passages of the source.

Legend:
SIVmac [1] = assay: CPSF6-358 restriction assay, SIVmac; assay type: cell-based; conditions: HEK293T expressing CPSF6-358 vs vector, Luc virus, range of virus inocula (Fig. 5C)
Protocol: (§1) Vector control HEK293T cells were infected with GFP viruses at approximate MOIs of 0.4 to 0.5 alongside cells expressing CPSF6-358 (Fig. 5A).
(§2) HEK293T cells were cultured at 37°C in Dulbecco’s modified Eagle’s medium containing 10% (vol/vol) fetal bovine serum (FBS), 100 IU/ml penicillin, and 100 μg/ml streptomycin (DMEM) in humidified incubators in the presence of 5% CO2.
(§3) Single-cycle GFP and Luc reporter viruses were produced by cotransfection of HEK293T cells in 10-cm dishes with 15 μg total of various ratios of virus production plasmids using PolyJet DNA transfection reagent (SignaGen Laboratories). […] Concentrations of retroviral particles in mU/ml were determined using a TaqMan-based product-enhanced reverse transcriptase (Taq-PERT) real-time PCR assay ([80]).
(§4) Infections were conducted in duplicate in 24-well plates (10^5 cells/well). […] GFP reporter viral MOIs were determined as percentage of GFP-positive cells using a FACSCanto flow cytometer (BD Biosciences). […] Cell lysates were centrifuged at 17,500 × g for 8 min, and supernatants were analyzed in triplicate for luciferase activity. Relative light units (RLU), determined by luminometer (Berthold Technologies), were normalized to total protein concentration as measured by Pierce BCA protein assay kit (Thermo Fisher Scientific).

FIV = assay: CPSF6-358 restriction assay, FIV; assay type: cell-based; conditions: HEK293T expressing CPSF6-358 vs vector control, GFP virus, MOI 0.4 to 0.5, 48 h (Fig. 5B)
Protocol: as §1, §2, §3, §4

MLV = assay: CPSF6-358 restriction assay, MLV; assay type: cell-based; conditions: HEK293T expressing CPSF6-358 vs vector control, GFP virus, MOI 0.4 to 0.5, 48 h (Fig. 5B)
Protocol: as §1, §2, §3, §4

BIV = assay: CPSF6-358 restriction assay, BIV; assay type: cell-based; conditions: HEK293T expressing CPSF6-358 vs vector control, GFP virus, MOI 0.4 to 0.5, 48 h (Fig. 5B)
Protocol: as §1, §2, §3, §4

EIAV = assay: CPSF6-358 restriction assay, EIAV; assay type: cell-based; conditions: HEK293T expressing CPSF6-358 vs vector control, GFP virus, MOI 0.4 to 0.5, 48 h (Fig. 5B)
Protocol: as §1, §2
(§5) Infections were conducted in duplicate in 24-well plates (10^5 cells/well). After 6 to 8 h, medium was replaced with fresh DMEM or RPMI, and cells were harvested at 48 h from the start of the experiment. GFP reporter viral MOIs were determined as percentage of GFP-positive cells using a FACSCanto flow cytometer (BD Biosciences).

primate lentiviruses = assay: CPSF6-358 restriction assay, primate lentiviruses; assay type: cell-based; conditions: HEK293T expressing CPSF6-358 vs vector control, GFP viruses, MOI 0.4 to 0.5, 48 h (Fig. 5B)
Protocol: as §1, §2, §5

HIV-1 [2] = conditions: HEK293T expressing CPSF6-358 vs vector, Luc virus, range of virus inocula (Fig. 5C)
Protocol: as §1, §2, §3, §4

HIV-2 = test system: HIV-2; design: method as in PMID 20227665; conditions: cited from earlier work
SIVmac [3] = test system: SIVmac; design: method as in 2 sources, ref 33 = [33]; PMID 20227665; doi:10.1016/j.chom.2010.02.007; 33. Lee K , Ambrose Z , Martin TD , Oztop I , Mulky A , Julias JG , Vandegraaff N , Baumann JG , Wang R , Yuen W , Takemura T , Shelton K , Taniuchi I , Li Y , Sodroski J , Littman D , Coffin J , Hugh ||| ref 35 = [35]; PMID 24130490; doi:10.1371/journal.ppat.1003693; 35. Matreyek KA , Yücel SS , Li X , Engelman A 2013 Nucleoporin NUP153 phenylalanine-glycine motifs engage a common binding pocket within the HIV-1 capsid protein to mediate lentiviral infectivity . P; conditions: cited from earlier work
SIVmne = test system: SIVmne; design: method as in PMID 20227665; conditions: cited from earlier work
HIV-1 [4] = conditions: cited from earlier work

B1: CPSF6-358 (protein, UniProt Q16630 1-358, looked up, fragment)
chain: MADGVDHIDIYADVGEEFNQEAEYGGHDQIDLYDDVISPSANNGDAPEDRDYMDTLPPTVGDDVGKGAAPNVVYTYTGKRIALYIGNLTWWTTDEDLTEAVHSLGVNDILEIKFFENRANGQSKGFALVGVGSEASSKKLMDLLPKRELHGQNPVVTPCNKQFLSQFEMQSRKTTQSGQMSGEGKAGPPGGSSRAAFPQGGRGRGRFPGAVPGGDRFPGPAGPGGPPPPFPAGQTPPRPPLGPPGPPGPPGPPPPGQVLPPPLAGPPNRGDRPPPPVLFPGQPFGQPPLGPLPPGPPPPVPGYGPPPGPPPPQQGPPPPPGPFPPRPPGPLGPPLTLAPPPHLPGPPPGAPPPAPHVN
restriction of infection, in words (SIVmac [1]): restriction of HIV-1 and SIVmac-Luc viruses was observed across a range of virus inocula
restriction of infection, in words (FIV): did not significantly restrict FIV infection
restriction of infection, in words (MLV): MLV-GFP similarly infected control and CPSF6-358-expressing cells
restriction of infection, in words (BIV): infection by BIV was similarly unaffected
restriction of infection, in words (EIAV): failed to appreciably restrict EIAV infection
restriction of infection, in words (primate lentiviruses): potently restricted infection by primate lentiviruses
restriction of infection, in words (HIV-1 [2]): restriction of HIV-1 and SIVmac-Luc viruses was observed across a range of virus inocula
restriction of infection, in words (HIV-2): restricted infection
restriction of infection, in words (SIVmac [3]): restricted infection
restriction of infection, in words (SIVmne): restricted infection
restriction of infection, in words (HIV-1 [4]): restricted infection
